Tests used:
[1] = target: Campath-1 antigen (partially purified, obtained from a glycolipid extract from human spleen) (human) (UniProt P31358); test: cell-based or functional assay
[2] = target: Campath-1 antigen (partially purified, obtained from a glycolipid extract from human spleen) (human) (UniProt P31358); test: direct binding ELISA, partially purified Campath-1 antigen coated on wells, detected with biotin anti-rat IgG2b; antibody concentration at 50% maximal binding

Concentration of antibody in ug/ml at 50% lysis (complement lysis of human lymphocytes with human serum) [1] [µg/mL]	EC50 [2] [µg/mL]	Substance
16.3	1.8	HuVHCAMP(Ser27 to Phe)-RaIgG2B with rat kappa light chain of YTH 34.5HL (antibody)
17.6	2	HuVHCAMP(Ser27 to Phe, Ser30 to Thr)-RaIgG2B with rat kappa light chain of YTH 34.5HL (antibody)
–	27.3	HuVHCAMP-RaIgG2B with rat kappa light chain of YTH 34.5HL (antibody)

Reference: patent US6569430
